Source: article PMC9482650, “Quantitative fragmentomics allow affinity mapping of interactomes” (Nature Communications, 2022)
Numbering of substitutions follows the chain as printed.

What was measured:
Assay in all cases: holdup assay
Parameters in all cases: key: below the threshold = too weak to quantify, mostly under pKd 3.1 to 4
MAST2, Q6P0Q8 = target: MAST2, Q6P0Q8
APBA2_2, Q99767 = target: T1, APBA2_2, Q99767
T1 sequence (Q99767 654-744, limits assumed, looked up): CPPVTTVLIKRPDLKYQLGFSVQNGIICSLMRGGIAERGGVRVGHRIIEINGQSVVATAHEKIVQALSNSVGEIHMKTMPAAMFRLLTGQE

GRIP2_7, Q9C0E4 = target: GRIP2_7, Q9C0E4
Chain of GRIP2_7, Q9C0E4 (Q9C0E4 934-1023): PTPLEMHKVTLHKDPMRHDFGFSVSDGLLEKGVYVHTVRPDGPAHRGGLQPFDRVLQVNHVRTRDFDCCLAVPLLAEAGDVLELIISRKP

MAGI3_2, Q5TCQ9 = target: MAGI3_2, Q5TCQ9
Chain of MAGI3_2, Q5TCQ9 (Q5TCQ9 398-503): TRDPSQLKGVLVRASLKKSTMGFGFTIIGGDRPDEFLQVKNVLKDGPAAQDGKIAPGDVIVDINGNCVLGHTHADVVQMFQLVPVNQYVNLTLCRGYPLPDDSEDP

PTPN13_1, Q12923 = target: T2, PTPN13_1, Q12923
T2 sequence (Q12923 1088-1188, limits assumed, looked up): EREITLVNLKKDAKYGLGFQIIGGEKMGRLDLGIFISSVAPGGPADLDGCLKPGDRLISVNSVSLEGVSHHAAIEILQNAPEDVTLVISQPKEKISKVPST

APBA3_1, O96018 = target: T3, APBA3_1, O96018
T3 sequence (O96018 389-490, limits assumed, looked up): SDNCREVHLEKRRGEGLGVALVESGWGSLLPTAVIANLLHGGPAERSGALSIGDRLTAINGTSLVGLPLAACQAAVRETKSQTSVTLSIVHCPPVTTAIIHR

FRMPD1, Q5SYB0 = target: T4, FRMPD1, Q5SYB0
T4 sequence (Q5SYB0 52-145, limits assumed, looked up): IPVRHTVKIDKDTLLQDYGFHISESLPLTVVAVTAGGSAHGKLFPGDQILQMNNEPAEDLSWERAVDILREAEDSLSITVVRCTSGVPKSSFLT

GRIP2_3, Q9C0E4 = target: GRIP2_3, Q9C0E4
Chain of GRIP2_3, Q9C0E4 (Q9C0E4 238-339): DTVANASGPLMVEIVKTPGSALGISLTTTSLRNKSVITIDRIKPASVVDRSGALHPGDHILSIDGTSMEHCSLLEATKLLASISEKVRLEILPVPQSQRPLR

MPDZ_10, O75970 = target: T5, MPDZ_10, O75970
T5 sequence (O75970 1624-1722, limits assumed, looked up): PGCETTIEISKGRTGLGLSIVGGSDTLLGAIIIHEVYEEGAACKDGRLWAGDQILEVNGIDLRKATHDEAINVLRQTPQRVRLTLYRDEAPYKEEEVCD

SYNJ2BP, P57105 = target: T6, SYNJ2BP, P57105
T6 sequence (P57105 8-110, limits assumed, looked up): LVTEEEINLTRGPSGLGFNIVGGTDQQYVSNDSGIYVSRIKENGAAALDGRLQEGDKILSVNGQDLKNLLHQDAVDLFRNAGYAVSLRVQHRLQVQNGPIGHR

HTRA4, P83105 = target: T7, HTRA4, P83105
T7 sequence (P83105 378-476, limits assumed, looked up): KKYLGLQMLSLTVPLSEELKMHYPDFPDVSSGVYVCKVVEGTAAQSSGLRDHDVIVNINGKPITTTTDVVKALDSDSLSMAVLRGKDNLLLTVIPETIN

PDZD7_3, Q9H5P4 = target: T8, PDZD7_3, Q9H5P4
T8 sequence (Q9H5P4 857-944, limits assumed, looked up): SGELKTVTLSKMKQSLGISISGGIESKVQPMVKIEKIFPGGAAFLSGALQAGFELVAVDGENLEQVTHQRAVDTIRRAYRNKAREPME

APBA1_2, Q02410 = target: T9, APBA1_2, Q02410
T9 sequence (Q02410 742-832, limits assumed, looked up): T1 sequence (Q99767 654-744, limits assumed, looked up) with K10R, K15R, A59P, Q65H, A66I, S70A, F84Y, G89A

DLG1_1, Q12959 = target: DLG1_1, Q12959
PDLIM1, O00151 = target: PDLIM1, O00151
Chain of PDLIM1, O00151 (O00151 1-87): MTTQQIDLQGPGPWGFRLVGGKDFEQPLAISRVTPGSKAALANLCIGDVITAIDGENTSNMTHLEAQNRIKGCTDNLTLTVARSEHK

GIPC2, Q8TF65 = target: GIPC2, Q8TF65
Chain of GIPC2, Q8TF65 (Q8TF65 112-203): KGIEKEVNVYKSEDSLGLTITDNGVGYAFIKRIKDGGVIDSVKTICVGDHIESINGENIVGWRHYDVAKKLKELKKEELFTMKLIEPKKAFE

TJP2_1, Q9UDY2 = target: TJP2_1, Q9UDY2
Chain of TJP2_1, Q9UDY2 (Q9UDY2 24-128): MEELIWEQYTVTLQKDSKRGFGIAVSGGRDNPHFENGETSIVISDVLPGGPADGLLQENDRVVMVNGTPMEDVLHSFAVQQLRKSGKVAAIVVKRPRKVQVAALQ

NHERF3_4, Q5T2W1 = target: T10, NHERF3_4, Q5T2W1
T10 sequence (Q5T2W1 373-468, limits assumed, looked up): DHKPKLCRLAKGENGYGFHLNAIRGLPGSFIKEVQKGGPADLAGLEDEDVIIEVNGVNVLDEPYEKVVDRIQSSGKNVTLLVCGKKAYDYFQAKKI

ARHGAP21, Q5T5U3 = target: T11, ARHGAP21, Q5T5U3
T11 sequence (Q5T5U3 45-169, limits assumed, looked up): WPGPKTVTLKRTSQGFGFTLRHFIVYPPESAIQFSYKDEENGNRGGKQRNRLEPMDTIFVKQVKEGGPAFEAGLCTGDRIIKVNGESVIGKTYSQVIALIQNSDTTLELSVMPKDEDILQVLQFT

SIPA1L2, Q9P2F8 = target: T12, SIPA1L2, Q9P2F8
T12 sequence (Q9P2F8 945-1036, limits assumed, looked up): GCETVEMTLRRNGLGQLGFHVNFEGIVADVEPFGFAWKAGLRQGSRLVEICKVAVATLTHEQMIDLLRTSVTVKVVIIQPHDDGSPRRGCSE

LIN7B, Q9HAP6 = target: T13, LIN7B, Q9HAP6
T13 sequence (Q9HAP6 88-185, limits assumed, looked up): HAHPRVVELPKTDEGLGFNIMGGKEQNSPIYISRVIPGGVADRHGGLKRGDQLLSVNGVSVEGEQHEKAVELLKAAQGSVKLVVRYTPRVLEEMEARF

GRASP, Q7Z6J2 = target: GRASP, Q7Z6J2
Chain of GRASP, Q7Z6J2 (Q7Z6J2 96-193): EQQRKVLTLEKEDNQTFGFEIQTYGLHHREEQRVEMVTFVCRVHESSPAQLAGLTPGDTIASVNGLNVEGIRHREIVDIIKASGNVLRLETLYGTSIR

Inadl_2, Q8NI35 = target: Inadl_2, Q8NI35
Chain of Inadl_2, Q8NI35 (Q8NI35 238-335): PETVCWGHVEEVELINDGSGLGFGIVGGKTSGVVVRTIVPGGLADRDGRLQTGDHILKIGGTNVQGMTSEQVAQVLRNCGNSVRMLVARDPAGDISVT

MAGI2_4, Q86UL8 = target: MAGI2_4, Q86UL8
Chain of MAGI2_4, Q86UL8 (Q86UL8 772-865): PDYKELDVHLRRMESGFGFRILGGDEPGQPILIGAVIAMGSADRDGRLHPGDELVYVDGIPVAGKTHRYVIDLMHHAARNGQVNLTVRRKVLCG

SNX27, Q96L92 = target: SNX27, Q96L92
[1] = plain residues with an end cap or a label only (N-terminal biotin on a linker: ado-ado)
[2] = modified: phospho on T at position -2 from the C-terminal residue

Chain of MAST2, Q6P0Q8 (Q6P0Q8 1099-1202): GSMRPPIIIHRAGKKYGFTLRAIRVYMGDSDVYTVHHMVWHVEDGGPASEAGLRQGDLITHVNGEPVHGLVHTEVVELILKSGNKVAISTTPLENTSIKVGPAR

## DLLGGGSDSI [TNRC6B, Q9UPQ9]
MAST2, Q6P0Q8; [1]
  pKd: below the threshold
APBA2_2, Q99767; [1]
  pKd: below the threshold
GRIP2_7, Q9C0E4; [1]
  pKd: below the threshold
MAGI3_2, Q5TCQ9; [1]
  pKd: below the threshold
PTPN13_1, Q12923; [1]
  pKd: below the threshold
APBA3_1, O96018; [1]
  pKd: below the threshold
FRMPD1, Q5SYB0; [1]
  pKd: below the threshold
GRIP2_3, Q9C0E4; [1]
  pKd: below the threshold
MPDZ_10, O75970; [1]
  pKd: below the threshold
SYNJ2BP, P57105; [1]
  pKd: below the threshold
HTRA4, P83105; [1]
  pKd: below the threshold
PDZD7_3, Q9H5P4; [1]
  pKd: below the threshold
APBA1_2, Q02410; [1]
  pKd: below the threshold
DLG1_1, Q12959; [1]
  pKd: below the threshold
PDLIM1, O00151; [1]
  pKd: below the threshold
GIPC2, Q8TF65; [1]
  pKd: 3.55
TJP2_1, Q9UDY2; [1]
  pKd: below the threshold
NHERF3_4, Q5T2W1; [1]
  pKd: below the threshold
ARHGAP21, Q5T5U3; [1]
  pKd: below the threshold
SIPA1L2, Q9P2F8; [1]
  pKd: below the threshold
LIN7B, Q9HAP6; [1]
  pKd: 3.61
GRASP, Q7Z6J2; [1]
  pKd: below the threshold
Inadl_2, Q8NI35; [1]
  pKd: below the threshold
MAGI2_4, Q86UL8; [1]
  pKd: below the threshold
SNX27, Q96L92; [1]
  pKd: below the threshold

## TKEIPNCTSV [SORCS3, Q9UPU3]
MAST2, Q6P0Q8; [1]
  pKd: 5.82
APBA2_2, Q99767; [1]
  pKd: below the threshold
GRIP2_7, Q9C0E4; [1]
  pKd: below the threshold
MAGI3_2, Q5TCQ9; [1]
  pKd: 4.67
PTPN13_1, Q12923; [1]
  pKd: below the threshold
APBA3_1, O96018; [1]
  pKd: below the threshold
FRMPD1, Q5SYB0; [1]
  pKd: below the threshold
GRIP2_3, Q9C0E4; [1]
  pKd: below the threshold
MPDZ_10, O75970; [1]
  pKd: 3.83
SYNJ2BP, P57105; [1]
  pKd: 4.72
HTRA4, P83105; [1]
  pKd: 4.44
PDZD7_3, Q9H5P4; [1]
  pKd: 4.82
APBA1_2, Q02410; [1]
  pKd: 4.64
DLG1_1, Q12959; [1]
  pKd: 4.22
PDLIM1, O00151; [1]
  pKd: below the threshold
GIPC2, Q8TF65; [1]
  pKd: 3.83
TJP2_1, Q9UDY2; [1]
  pKd: below the threshold
NHERF3_4, Q5T2W1; [1]
  pKd: below the threshold
ARHGAP21, Q5T5U3; [1]
  pKd: 3.86
SIPA1L2, Q9P2F8; [1]
  pKd: 3.49
LIN7B, Q9HAP6; [1]
  pKd: below the threshold
GRASP, Q7Z6J2; [1]
  pKd: 4.74
Inadl_2, Q8NI35; [1]
  pKd: below the threshold
MAGI2_4, Q86UL8; [1]
  pKd: 4.16
SNX27, Q96L92; [1]
  pKd: 5.16

## SRSRRRETAL [HPV33-E6_-2P, P06427]
MAST2, Q6P0Q8; [2]
  pKd: 3.62
APBA2_2, Q99767; [2]
  pKd: below the threshold
GRIP2_7, Q9C0E4; [2]
  pKd: below the threshold
MAGI3_2, Q5TCQ9; [2]
  pKd: below the threshold
PTPN13_1, Q12923; [2]
  pKd: below the threshold
APBA3_1, O96018; [2]
  pKd: below the threshold
FRMPD1, Q5SYB0; [2]
  pKd: below the threshold
GRIP2_3, Q9C0E4; [2]
  pKd: below the threshold
MPDZ_10, O75970; [2]
  pKd: below the threshold
SYNJ2BP, P57105; [2]
  pKd: below the threshold
HTRA4, P83105; [2]
  pKd: below the threshold
PDZD7_3, Q9H5P4; [2]
  pKd: 3.74
APBA1_2, Q02410; [2]
  pKd: below the threshold
DLG1_1, Q12959; [2]
  pKd: below the threshold
PDLIM1, O00151; [2]
  pKd: below the threshold
GIPC2, Q8TF65; [2]
  pKd: below the threshold
TJP2_1, Q9UDY2; [2]
  pKd: below the threshold
NHERF3_4, Q5T2W1; [2]
  pKd: below the threshold
ARHGAP21, Q5T5U3; [2]
  pKd: 4.02
SIPA1L2, Q9P2F8; [2]
  pKd: below the threshold
LIN7B, Q9HAP6; [2]
  pKd: below the threshold
GRASP, Q7Z6J2; [2]
  pKd: below the threshold
Inadl_2, Q8NI35; [2]
  pKd: below the threshold
MAGI2_4, Q86UL8; [2]
  pKd: below the threshold
SNX27, Q96L92; [2]
  pKd: below the threshold
